How the values were obtained:
[1] = test system: ryegrass plants; assay: Root biomass analysis of ryegrass transformants; format: in vivo; conditions: approximately 6 weeks in glasshouse
Experimental: An equal number (typically 4-10) of tillers were taken from WT and ryegrass plants transformed with Arabidopsis PPD under a constitutive promoter. Tillers were planted into plastic grow bags containing potting mix and pruned to be of equal height. […] The increase in root biomass was quantified by washing the roots under running water then removing the attached above ground portion (leaves and stems) and drying the roots at 65° C. for 48 hr then weighing the dry weights (Table 2).
An equal number (typically 4-10) of tillers were taken from WT and ryegrass plants transformed with Arabidopsis PPD under one of three root promoters. Tillers were planted into plastic grow bags containing potting mix and pruned to be of equal height. […] The increase in root biomass was quantified by washing the roots under running water then removing the attached above ground portion (leaves and stems) and drying the roots at 65° C. for 48 hr then weighing the dry weights (Table 3 and Table 4)

[2] = test system: alfalfa (variety USD5) plants; assay: Root biomass analysis of alfalfa transformants; format: in vivo; conditions: constitutive promoter, approximately 6 weeks in growth cabinet
Experimental: Cuttings of approximately equal size were taken from WT and alfalfa (variety USD5) plants transformed with Arabidopsis PPD under a constitutive promoter. Cuttings were planted into plastic grow bags containing potting mix. […] The increase in root biomass was quantified by washing the roots under running water (these were photographed, FIG. 12) then the attached above ground portion (leaves and stems) was removed and the roots dried at 65° C. for 48 hr then weighed Table 5.

[3] = test system: PEAPOD deletion mutant Δppd Arabidopsis thaliana ecotype Landsberg erecta; assay: Complementation of the Arabidopsis Δppd mutant leaf phenotype; format: in vivo; conditions: optimized PEAPOD coding sequence under CaMV35s promoter, seedlings (FIG. 13)
Text: The functionality of any PEAPOD sequence can be confirmed by complementation of the Arabidopsis Δppd mutant leaf phenotype. Complementation of the Arabidopsis Δppd mutant leaf phenotype was first used to identify the Arabidopsis PPD gene (White 2006). This was seen by a restoration of the wild type flattened leaf phenotype and normal rosette shape as opposed to the domed leaf and the twisting of the rosette to a “propeller” phenotype.
Constructs above can be transformed into Arabidopsis by the floral dip infiltration method (Clough and Bent, 1998 Plant J 16, 735-43). The Δppd line is transformed to express the PPD polypeptides by standard techniques. Transgenic plants are confirmed by standard PCR analysis techniques with a combination of transgene-specific and T-DNA primers.
Complementation of the Δppd line to produce a wild-type leaf and rosette phenotype in T1 seedlings (the off-spring of the infiltrated plant) confirms PEAPOD functionality of the introduced gene, which can be shown in photographs.

[4] = target: T1, NINJA (Arabidopsis thaliana, UniProt Q9SV55); assay: BiFC interaction with NINJA in Nicotiana benthamiana leaves; format: cell-based; conditions: in planta
T1 construct: expressed in transfected cells; host or cells: Nicotiana benthamiana leaves (Agrobacterium infiltration)
Text: (§1) The binary BiFC-Gateway YFP vectors pDEST-VYNE(R)^GW (Venus aa 1-173) and pDEST-VYCE(R)^GW (Venus aa 156-239) with N-terminal fusions, were used to construct the following vectors; pDESTnYFP-BZR1, pDESTnYFP-NINJA, pDESTnYFP-PPD1, pDESTcYFP-BZR1, pDESTcYFP-PPD1, pDESTcYFP-PPD1Δppd, pDESTcYFP-PPD1Δtify and pDESTcYFP-PPD1Δjas*. […] Plasmids for co-immunoprecipitation: A synthesised DNA construct encoding PPD1 with a 3×c-myc C-terminal fusion was sub-cloned into pRSh1 to produce pRSh1-PPD1-3×c-myc, while the NINJA cDNA sequence was sub-cloned into pB7FWG2,0 (Karimi et al 2002, Trends Plant Sci. 7, 193-195) to construct pB7FWG2-NINJA-GFP.
(§2) For infiltration Agrobacterium tumefaciens GV3101 strains containing the binary vectors were re-suspended from plates and prepared for transformation as described for the LUC assay. All YFP and expression strains were mixed in ratios of 1:1 (vol/vol) with the addition of strain P19 at 1/10th volume. Five leaf discs were sampled from each infiltrated leaf after 40 h. Two hours prior to sampling for microscopic fluorescence observations leaves were infiltrated with a 1 μg/ml DAPI solution to stain nuclei. YFP fluorescence and DAPI staining was detected using an Olympus Fluoview FV10i confocal laser scanning microscope. Each experiment was repeated twice.

[5] = target: T2, BZR1 (Arabidopsis thaliana, UniProt Q8S307); assay: BiFC interaction with BZR1 in Nicotiana benthamiana leaves; format: cell-based
T2 construct: expressed in transfected cells; host or cells: Nicotiana benthamiana leaves (Agrobacterium infiltration)
T2 sequence (Q8S307 1-336): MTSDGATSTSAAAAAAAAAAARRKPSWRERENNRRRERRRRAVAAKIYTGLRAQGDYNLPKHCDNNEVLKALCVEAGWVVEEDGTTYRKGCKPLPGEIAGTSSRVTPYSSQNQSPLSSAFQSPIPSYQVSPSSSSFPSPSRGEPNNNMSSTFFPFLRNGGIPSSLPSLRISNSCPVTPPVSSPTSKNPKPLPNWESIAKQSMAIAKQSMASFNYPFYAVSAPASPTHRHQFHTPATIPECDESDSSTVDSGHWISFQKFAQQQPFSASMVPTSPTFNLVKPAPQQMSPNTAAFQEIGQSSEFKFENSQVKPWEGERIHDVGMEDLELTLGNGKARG
Text: as §1, §2

T1 sequence (Q9SV55 with tags, fused parts or gaps): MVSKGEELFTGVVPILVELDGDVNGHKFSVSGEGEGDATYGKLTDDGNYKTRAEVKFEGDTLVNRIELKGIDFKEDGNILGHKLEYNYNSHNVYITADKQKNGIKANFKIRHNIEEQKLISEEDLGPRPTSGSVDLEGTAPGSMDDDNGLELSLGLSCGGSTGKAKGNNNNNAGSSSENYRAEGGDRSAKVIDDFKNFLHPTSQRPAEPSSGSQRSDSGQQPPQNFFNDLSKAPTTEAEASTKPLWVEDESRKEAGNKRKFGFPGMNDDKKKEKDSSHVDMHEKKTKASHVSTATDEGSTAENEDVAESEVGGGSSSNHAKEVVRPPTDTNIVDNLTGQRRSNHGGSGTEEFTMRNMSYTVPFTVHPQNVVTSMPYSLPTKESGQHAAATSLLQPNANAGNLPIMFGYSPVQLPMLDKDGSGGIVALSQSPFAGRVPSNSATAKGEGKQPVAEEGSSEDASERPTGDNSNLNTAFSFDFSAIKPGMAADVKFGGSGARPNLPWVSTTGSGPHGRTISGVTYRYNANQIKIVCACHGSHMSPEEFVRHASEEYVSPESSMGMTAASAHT

B1: Arabidopsis PPD: Arabidopsis thaliana PEAPOD 1 protein, At4g14713, SEQ ID NO: 1 (protein, listed as Arabidopsis thaliana)
chain: MDVGVSPAKSILAKPLKLLTEEDISQLTREDCRKFLKDKGMRRPSWNKSQAIQQVLSLKALYEPGDDSGAGIFRKILVSQPVNPPRVTTTLIEPSNELEACGRVSYPEDNGACHRMDSPRSAEFSGGSGHFVSEKDGHKTTISPRSPAETSELVGQMTIFYSGKVNVYDGIPPEKARSIMHFAANPIDLPENGIFASSRMISKLISKEKMMELPQKGLEKANSSRDSGMEGQANRKVSLQRYREKRKDRKFSKAKKCPGVASSSLEMFLNCQPRMKAAYSQNLGCTGSPLHSQSPESQTKSPNLSVDLNSEGI
For B1, the “root growth beyond the grow bag compared to WT plants” value ([1]; constitutive promoter) was “increase in root biomass/growth/length/branching”, the “root growth beyond the grow bag compared to WT plants” value ([1]; one of three root promoters) was “increase in root biomass/growth/length/branching” and the “root growth beyond the grow bag compared to WT plants” value [2] was “increase in root biomass/growth/length/branching”. For the same molecule, the “PEAPOD functionality by complementation of Δppd mutant” value [3] was “functionally equivalent”, the “BiFC interaction with NINJA” value [4] was “interacted with NINJA in plants” and the “BiFC interaction with BZR1” value ([5]; fully expanded leaves, co-expression of NINJA) was “restored”. The “BiFC interaction with BZR1” value ([5]; pavement cells of immature Nicotiana benthamiana leaves) was “appears to interact with BZR1 in the nucleus”.
